The values that follow come from patent publication US20230159655A1 (AKESO BIOPHARMA, published 2023).

For experiment [1], the target named is T1, human NT5E-Biotin (NT5E, GenbankID: NP_002517.1, position: 1-552) (human, UniProt P21589 27-552, biotin (site not stated)).
T1 construct: range 1-552; Biotinylated antigen captured on streptavidin-coated plates; also called HNT5E-Biotin; human NTSE-Biotin
T1 sequence (looked up): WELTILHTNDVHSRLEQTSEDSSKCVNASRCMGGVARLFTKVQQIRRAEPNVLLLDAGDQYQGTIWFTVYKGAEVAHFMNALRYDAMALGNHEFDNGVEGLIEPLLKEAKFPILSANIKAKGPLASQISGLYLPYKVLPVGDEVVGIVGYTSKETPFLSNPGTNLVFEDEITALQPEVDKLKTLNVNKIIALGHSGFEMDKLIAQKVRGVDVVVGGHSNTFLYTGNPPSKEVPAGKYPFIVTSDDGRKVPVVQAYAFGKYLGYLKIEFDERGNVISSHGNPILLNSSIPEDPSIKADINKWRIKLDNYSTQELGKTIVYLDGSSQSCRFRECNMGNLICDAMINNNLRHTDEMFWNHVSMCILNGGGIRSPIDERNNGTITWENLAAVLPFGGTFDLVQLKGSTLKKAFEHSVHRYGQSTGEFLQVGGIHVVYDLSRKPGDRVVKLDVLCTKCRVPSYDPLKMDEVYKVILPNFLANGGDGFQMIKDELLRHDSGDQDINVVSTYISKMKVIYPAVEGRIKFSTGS
The experiment can be described thus: ELISA on SA-captured NT5E-Biotin; antibody 0 (blank); replicate 1. The procedure:
(§1) Experimental steps: a microplate was coated with streptavidin at 2 μg/mL, and then the microplate was incubated at 4° C. for 12 hours. The antigen-coated microplate was rinsed for once with PBST after incubation, and then blocked with a PBST solution containing 1% BSA as a microplate blocking solution for 2 hours. After blocking, the microplate was washed 3 times with PBST. […] The antibody serially diluted with the PBST solution was added to the wells of the microplate. The microplate containing the test antibodies was incubated at 37° C. for 30 minutes, and then washed 3 times with PBST. After the plate was washed, the secondary antibody working solution of HRP-labeled goat anti-human IgG (H+L) (Jackson, Cat. No. 109-035-088) diluted in a ratio of 1:5000 or HRP-labeled goat anti-mouse IgG (H+L) (Jackson, Cat. No. 115-035-062) diluted in a ratio of 1:5000 was added, and then the plate was incubated at 37° C. for 30 minutes. After incubation, the plate was washed 4 times with PBST, TMB (Neogen, 308177) was added in the dark for color development for 5 min, and then a stop solution was added to terminate chromogenic reaction. The microplate was put into a microplate reader immediately, and the OD value of each well in the microplate was read at the light wavelength of 450 nm. The data were analyzed by SoftMax Pro 6.2.1.
On the technique in general: ELISA stands for enzyme-linked immunosorbent assay.

The target of experiment [2] is T1, human NT5E-Biotin (NT5E, GenbankID: …). Description: ELISA on SA-captured NT5E-Biotin; antibody 0 (blank); replicate 2. The procedure:
as §1

Experiment [3] shares this target. The experiment can be described thus: ELISA on SA-captured NT5E-Biotin; antibody 0.333 ug/mL; replicate 1. As for the experimental part: as §1
Experiment [4] shares this target. Description: ELISA on SA-captured NT5E-Biotin; antibody 0.333 ug/mL; replicate 2. As for the experimental part:
as §1

The target is the same in experiment [5]. Description: ELISA on SA-captured NT5E-Biotin; antibody 0.333 ug/mL diluted 1:3; replicate 1. The procedure:
as §1

The target is the same in experiment [6]. The experiment can be described thus: ELISA on SA-captured NT5E-Biotin; antibody 0.333 ug/mL diluted 1:3; replicate 2. The procedure: as §1
Experiment [7] shares this target. The experiment can be described thus: ELISA on SA-captured NT5E-Biotin; antibody 0.333 ug/mL diluted 1:9; replicate 1. As for the experimental part:
as §1

Experiment [8] has the same target. The experiment can be described thus: ELISA on SA-captured NT5E-Biotin; antibody 0.333 ug/mL diluted 1:27; replicate 2. As for the experimental part:
as §1

Experiment [9] shares this target. Description: ELISA on SA-captured NT5E-Biotin; antibody 0.333 ug/mL diluted 1:81; replicate 1. As for the experimental part: as §1
The target is the same in experiment [10]. Description: ELISA on SA-captured NT5E-Biotin; antibody 0.333 ug/mL diluted 1:81; replicate 2. The procedure:
as §1

Experiment [11] has the same target. The experiment can be described thus: ELISA on SA-captured NT5E-Biotin; antibody 0.333 ug/mL diluted 1:243; replicate 1. As for the experimental part: as §1
For experiment [12] the target is unchanged. The experiment can be described thus: ELISA on SA-captured NT5E-Biotin; antibody 0.333 ug/mL diluted 1:243; replicate 2. As for the experimental part: as §1
For experiment [13] the target is unchanged. The experiment can be described thus: ELISA on SA-captured NT5E-Biotin; antibody 0.333 ug/mL diluted 1:729; replicate 1. The procedure: as §1
Experiment [14] has the same target. Description: ELISA on SA-captured NT5E-Biotin; antibody 0.333 ug/mL diluted 1:729; replicate 2. The procedure: as §1

B1: murine anti-CD73 monoclonal antibody 19F3 (antibody, V domains shown)
VH: EVQLQQSGPELVKPGASMRMSCKASGYSFTGYTMNWVKQSHGKNLEWIGLINPYNAGTSYNQKFKGKATLTVDKSSSTAYMELLSLTSEDSAVYYCARSEYRYGGDYFDYWGQGTTLTVSS
VL: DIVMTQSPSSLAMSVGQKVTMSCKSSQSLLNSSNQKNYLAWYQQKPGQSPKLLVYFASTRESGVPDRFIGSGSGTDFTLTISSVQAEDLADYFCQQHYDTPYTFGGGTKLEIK
notes: Mouse hybridoma antibody purified on protein A; also called murine antibody 19F3; antibody secreted by hybridoma cell line LT014 (CD73-19F3)
In the case of B1, the “OD 450 nm” value in experiment [1] was determined as 0.06 OD450; in [2], 0.062 OD450; in experiment [3], 2.71 OD450; in experiment [4], 2.74 OD450; in [5] it was 2.74 OD450; in experiment [6], 2.76 OD450. The “OD 450 nm” value is 2.57 OD450 in experiment [7]; 2.36 OD450 in [8]; 1.69 OD450 in [9]; 1.77 OD450 in [10]; 1 OD450 in experiment [11]; 1 OD450 in [12]. The “OD 450 nm” value is 0.446 OD450 in experiment [13] and 0.47 OD450 in experiment [14].
